The text below walks through data of PMC9603599, “NAC1 Maintains Root Meristem Activity by Repressing the Transcription of E2Fa in Arabidopsis”.

The data set deals with T1, GST-NAC1(1-199) (Arabidopsis thaliana, UniProt Q84TE6 1-199).
T1 sequence: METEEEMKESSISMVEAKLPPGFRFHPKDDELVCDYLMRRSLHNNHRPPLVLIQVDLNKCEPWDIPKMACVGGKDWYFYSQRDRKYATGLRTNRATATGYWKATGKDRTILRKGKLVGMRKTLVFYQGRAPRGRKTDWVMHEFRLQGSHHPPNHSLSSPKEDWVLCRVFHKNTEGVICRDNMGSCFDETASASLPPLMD
Put plainly: EMSA; LightShift Chemiluminescent EMSA kit (Thermo 20148), manufacturer's instructions; buffer, salt, pH and temperature not stated. The following applies: protein: recombinant, tags: GST (N-terminal, pGEX-4T-1), chain copies: 2, label: biotin.

B1: E2Fa promoter probe P1 (E2Fa-BIO-F1/R1) (dsDNA)
DNA 1: CGTGAAATGCCAGTGGTCTATGATCGGATTCTCTGTTTCCCGTTCTCCTTCTTTTTTTGGGCCTTAAATCCGTTT
DNA 2: AAACGGATTTAAGGCCCAAAAAAAGAAGGAGAACGGAAACAGAGAATCCGATCATAGACCACTGGCATTTCACG
On to B1, for which, for the setting “printed strands differ by one nt: F1 has CCCGTT where R1 complement gives CCGTT (1-nt bulge or typo), P1 = F1/R1 by number”, the binding result is reported as “binds”.

B2: E2Fa promoter probe P2 (E2Fa-BIO-F2/R2) (dsDNA)
DNA 1: CGTGTAGAGTTGCGATTTGCAGAGAATTGTGATTCTACAATTGGAGGCAAGATGATGAATGTGTGAACTGATTAGCGTAA
DNA 2: TTACGCTAATCAGTTCACACATTCATCATCTTGCCTCCAATTGTAGAATCACAATTCTCTGCAAATCGCAACTCTACACG
On to B2, for which, for the setting “blunt, P2 = F2/R2 by number”, the binding result is recorded as “binds”.
